Experimental findings from the Human Domainome abundance scans (Beltran et al. 2025) are described below.

± gives the uncertainty stated by the source.

The nature of this data set: abundance fitness (aPCA) (normalised: wild type 0, dead -1); higher = more abundant; growth selection in yeast, the domain comes from the species named. The conditions noted are these: Homo sapiens.
For the substance “BAG family molecular chaperone regulator 3 R53E, O95817”, the abundance fitness is -0.646 ± 0.14.
In turn, “BAG family molecular chaperone regulator 3 R53G, O95817” registered an abundance fitness of -0.295 ± 0.09.
“BAG family molecular chaperone regulator 3 R53H, O95817” showed an abundance fitness of -0.611 ± 0.3.
Substance “BAG family molecular chaperone regulator 3 R53K, O95817” showed an abundance fitness of -0.424 ± 0.28.
The substance “BAG family molecular chaperone regulator 3 R53L, O95817” yielded an abundance fitness of -0.732 ± 0.09.
In turn, “BAG family molecular chaperone regulator 3 R53M, O95817” came in with an abundance fitness of -0.296 ± 0.25.
Substance “BAG family molecular chaperone regulator 3 R53N, O95817” registered an abundance fitness of -0.257 ± 0.44.
In the case of “BAG family molecular chaperone regulator 3 R53P, O95817” it was -0.653 ± 0.083; in that of “BAG family molecular chaperone regulator 3 R53S, O95817”, -0.523 ± 0.18; in that of “BAG family molecular chaperone regulator 3 R53T, O95817”, -0.225 ± 0.25.
For the substance “BAG family molecular chaperone regulator 3 R53V, O95817”, the abundance fitness is -0.715 ± 0.22.
Substance “BAG family molecular chaperone regulator 3 R53W, O95817” had an abundance fitness of -0.861 ± 0.14.
“BAG family molecular chaperone regulator 3 R53Y, O95817” had an abundance fitness of -0.788 ± 0.14.
In turn, “BAG family molecular chaperone regulator 3 S14A, O95817” returned an abundance fitness of -0.285 ± 0.14.
“BAG family molecular chaperone regulator 3 S14C, O95817” showed an abundance fitness of -0.542 ± 0.42.
The substance “BAG family molecular chaperone regulator 3 S14D, O95817” displayed an abundance fitness of 0.102 ± 0.14.
“BAG family molecular chaperone regulator 3 S14E, O95817” came in with an abundance fitness of 0.233 ± 0.085.
In turn, “BAG family molecular chaperone regulator 3 S14F, O95817” came in with an abundance fitness of -0.528 ± 0.28.
In the case of “BAG family molecular chaperone regulator 3 S14G, O95817” it was -0.641 ± 0.1.
In the case of “BAG family molecular chaperone regulator 3 S14H, O95817” it was 0.623 ± 0.12; in that of “BAG family molecular chaperone regulator 3 S14I, O95817”, 0.059 ± 0.23.
“BAG family molecular chaperone regulator 3 S14K, O95817” returned an abundance fitness of 0.023 ± 0.28.
In the case of “BAG family molecular chaperone regulator 3 S14L, O95817” it was 0.091 ± 0.11.
On to “BAG family molecular chaperone regulator 3 S14M, O95817”, for which the abundance fitness was -0.022 ± 0.2.
For “BAG family molecular chaperone regulator 3 S14N, O95817”, the abundance fitness is -0.156 ± 0.17.
Turning to “BAG family molecular chaperone regulator 3 S14P, O95817”, the abundance fitness was -0.269 ± 0.19.
The substance “BAG family molecular chaperone regulator 3 S14Q, O95817” returned an abundance fitness of 0.677 ± 0.15.
As for “BAG family molecular chaperone regulator 3 S14T, O95817”, the abundance fitness was -0.084 ± 0.19.
With “BAG family molecular chaperone regulator 3 S14V, O95817”, the abundance fitness was -0.219 ± 0.14.
In the case of “BAG family molecular chaperone regulator 3 S14W, O95817” it was -0.576 ± 0.23.
“BAG family molecular chaperone regulator 3 S14Y, O95817” came in with an abundance fitness of -0.113 ± 0.15.
On to “BAG family molecular chaperone regulator 3 S44C, O95817”, for which the abundance fitness is -0.688 ± 0.31.
In turn, “BAG family molecular chaperone regulator 3 S44D, O95817” had an abundance fitness of -0.557 ± 0.47.
“BAG family molecular chaperone regulator 3 S44E, O95817” showed an abundance fitness of -0.489 ± 0.17.
The substance “BAG family molecular chaperone regulator 3 S44F, O95817” returned an abundance fitness of -0.682 ± 0.29.
“BAG family molecular chaperone regulator 3 S44G, O95817”: the abundance fitness was -0.483 ± 0.11.
In the case of “BAG family molecular chaperone regulator 3 S44H, O95817”, the abundance fitness is -0.481 ± 0.37.
In the case of “BAG family molecular chaperone regulator 3 S44K, O95817” it was -0.7 ± 0.43; in that of “BAG family molecular chaperone regulator 3 S44L, O95817”, -0.246 ± 0.17.
The substance “BAG family molecular chaperone regulator 3 S44M, O95817” yielded an abundance fitness of -0.371 ± 0.15.
Turning to “BAG family molecular chaperone regulator 3 S44N, O95817”, the abundance fitness is -0.035 ± 0.25.
The substance “BAG family molecular chaperone regulator 3 S44Q, O95817” gave an abundance fitness of -0.44 ± 0.29.
With “BAG family molecular chaperone regulator 3 S44R, O95817”, the abundance fitness is -0.335 ± 0.08.
As for “BAG family molecular chaperone regulator 3 S44T, O95817”, the abundance fitness is 0.209 ± 0.11.
On to “BAG family molecular chaperone regulator 3 S44W, O95817”, for which the abundance fitness was -0.86 ± 0.17.
For “BAG family molecular chaperone regulator 3 S44Y, O95817”, the abundance fitness is -0.485 ± 0.39.
Substance “BAG family molecular chaperone regulator 3 S56A, O95817” registered an abundance fitness of -0.146 ± 0.12.
In the case of “BAG family molecular chaperone regulator 3 S56C, O95817” it was -0.13 ± 0.18; in that of “BAG family molecular chaperone regulator 3 S56E, O95817”, -0.24 ± 0.25.
On to “BAG family molecular chaperone regulator 3 S56F, O95817”, for which the abundance fitness is -0.205 ± 0.13.
For the substance “BAG family molecular chaperone regulator 3 S56G, O95817”, the abundance fitness is -0.011 ± 0.063.
In the case of “BAG family molecular chaperone regulator 3 S56H, O95817” it was -0.411 ± 0.37.
“BAG family molecular chaperone regulator 3 S56I, O95817”: the abundance fitness came to 0.304 ± 0.1.
The substance “BAG family molecular chaperone regulator 3 S56K, O95817” gave an abundance fitness of -0.136 ± 0.29.
Consider “BAG family molecular chaperone regulator 3 S56L, O95817”, for which the abundance fitness was -0.125 ± 0.14.
The substance “BAG family molecular chaperone regulator 3 S56M, O95817” came in with an abundance fitness of 0.083 ± 0.12.
“BAG family molecular chaperone regulator 3 S56N, O95817” gave an abundance fitness of 0.103 ± 0.19.
With “BAG family molecular chaperone regulator 3 S56P, O95817”, the abundance fitness is -0.572 ± 0.27.
Take “BAG family molecular chaperone regulator 3 S56R, O95817”: the abundance fitness worked out at 0.007 ± 0.063.
On to “BAG family molecular chaperone regulator 3 S56T, O95817”, for which the abundance fitness was 0.208 ± 0.16.
The substance “BAG family molecular chaperone regulator 3 S56V, O95817” had an abundance fitness of 0.08 ± 0.1.
As to “BAG family molecular chaperone regulator 3 S56W, O95817”, the abundance fitness was -0.473 ± 0.13.
With “BAG family molecular chaperone regulator 3 S56Y, O95817”, the abundance fitness came out at 0.376 ± 0.3.
“BAG family molecular chaperone regulator 3 T34A, O95817” returned an abundance fitness of 0.131 ± 0.12.
In the case of “BAG family molecular chaperone regulator 3 T34C, O95817” it was -0.073 ± 0.13.
In the case of “BAG family molecular chaperone regulator 3 T34E, O95817” it was -0.183 ± 0.19; in that of “BAG family molecular chaperone regulator 3 T34G, O95817”, 0.064 ± 0.087; in that of “BAG family molecular chaperone regulator 3 T34H, O95817”, -0.495 ± 0.48.
As for “BAG family molecular chaperone regulator 3 T34I, O95817”, the abundance fitness is 0.028 ± 0.2.
In the case of “BAG family molecular chaperone regulator 3 T34K, O95817” it was 0.244 ± 0.23; in that of “BAG family molecular chaperone regulator 3 T34L, O95817”, -0.568 ± 0.084.
In the case of “BAG family molecular chaperone regulator 3 T34M, O95817” it was 0.01 ± 0.23.
In the case of “BAG family molecular chaperone regulator 3 T34N, O95817” it was 0.336 ± 0.26.
“BAG family molecular chaperone regulator 3 T34P, O95817” returned an abundance fitness of -0.688 ± 0.14.
With “BAG family molecular chaperone regulator 3 T34Q, O95817”, the abundance fitness was -0.148 ± 0.1.
“BAG family molecular chaperone regulator 3 T34R, O95817”: the abundance fitness is -0.391 ± 0.12.
On to “BAG family molecular chaperone regulator 3 T34S, O95817”, for which the abundance fitness stood at 0.579 ± 0.089.
The substance “BAG family molecular chaperone regulator 3 T34V, O95817” registered an abundance fitness of 0.011 ± 0.17.
On to “BAG family molecular chaperone regulator 3 T34W, O95817”, for which the abundance fitness was -0.179 ± 0.083.
The substance “BAG family molecular chaperone regulator 3 T46A, O95817” displayed an abundance fitness of -0.687 ± 0.32.
On to “BAG family molecular chaperone regulator 3 T46C, O95817”, for which the abundance fitness is -0.312 ± 0.086.
